± gives the standard deviation of the averaged measurements.
Assay: total protein half-life in vivo (active degradation + dilution); higher = more stable protein
[1] = E. coli NCM3722 delta-clpP delta-lon delta-hslV, growth: N-lim chemostat, doubling time 6 h
[2] = E. coli NCM3722 delta-clpP, growth: N-lim chemostat, doubling time 6 h
[3] = E. coli NCM3722 delta-hslV, growth: N-lim chemostat, doubling time 6 h
[4] = E. coli NCM3722 delta-lon, growth: N-lim chemostat, doubling time 6 h
[5] = E. coli NCM3722 delta-smpB, growth: N-lim chemostat, doubling time 6 h
[6] = wild type E. coli NCM3722, growth: C-lim chemostat, doubling time 3 h
[7] = wild type E. coli NCM3722, growth: C-lim chemostat, doubling time 6 h
[8] = wild type E. coli NCM3722, growth: C-lim chemostat, doubling time 12 h
[9] = wild type E. coli NCM3722, growth: N-lim chemostat, doubling time 6 h
[10] = wild type E. coli NCM3722, growth: N-lim chemostat, doubling time 12 h
[11] = wild type E. coli NCM3722, growth: P-lim chemostat, doubling time 6 h
[12] = wild type E. coli NCM3722, growth: P-lim chemostat, doubling time 12 h

Sequence	total protein half-life in vivo [1] [h]	total protein half-life in vivo [2] [h]	total protein half-life in vivo [3] [h]	total protein half-life in vivo [4] [h]	total protein half-life in vivo [5] [h]	total protein half-life in vivo [6] [h]	total protein half-life in vivo [7] [h]	total protein half-life in vivo [8] [h]	total protein half-life in vivo [9] [h]	total protein half-life in vivo [10] [h]	total protein half-life in vivo [11] [h]	total protein half-life in vivo [12] [h]
MSSKEQKTPEGQAPEEIIMDQHEEIEAVEPEASAEQVDPRDEKVANLEAQLAEAQTRERDGILRVKAEMENLRRRTELDIEKAHKFALEKFINELLPVIDSLDRALEVADKANPDMSAMVEGIELTLKSMLDVVRKFGVEVIAETNVPLDPNVHQAIAMVESDDVAPGNVLGIMQKGYTLNGRTIRAAMVTVAKAKA	6.35 ± 0.23	6.61 ± 1.3	5.31 ± 0.46	5.19 ± 0.26	4.79 ± 0.18	3.024 ± 0.0063	5.43 ± 0.17	9.26 ± 0.18	5.66 ± 0.14	8.74 ± 0.79	5.26 ± 0.24	10.7 ± 0.15
MSSKLVLVLNCGSSSLKFAIIDAVNGEEYLSGLAECFHLPEARIKWKMDGNKQEAALGAGAAHSEALNFIVNTILAQKPELSAQLTAIGHRIVHGGEKYTSSVVIDESVIQGIKDAASFAPLHNPAHLIGIEEALKSFPQLKDKNVAVFDTAFHQTMPEESYLYALPYNLYKEHGIRRYGAHGTSHFYVTQEAAKMLNKPVEELNIITCHLGNGGSVSAIRNGKCVDTSMGLTPLEGLVMGTRSGDIDPAIIFHLHDTLGMSVDAINKLLTKESGLLGLTEVTSDCRYVEDNYATKEDAKRAMDVYCHRLAKYIGAYTALMDGRLDAVVFTGGIGENAAMVRELSLGKLGVLGFEVDHERNLAARFGKSGFINKEGTRPAVVIPTNEELVIAQDASRLTA [P0A6A3]	4.23 ± 0.13	6.03 ± 2.6	4.41 ± 0.054	4.89 ± 0.78	4.28 ± 0.21	3.25 ± 0.17	6.35 ± 0.1	12.1 ± 0.56	4.58 ± 0.21	8.13 ± 0.2	5.88 ± 0.24	13.1 ± 1.2
MSSLINNAMSGLNAAQAALNTASNNISSYNVAGYTRQTTIMAQANSTLGAGGWVGNGVYVSGVQREYDAFITNQLRAAQTQSSGLTARYEQMSKIDNMLSTSTSSLATQMQDFFTSLQTLVSNAEDPAARQALIGKSEGLVNQFKTTDQYLRDQDKQVNIAIGASVDQINNYAKQIASLNDQISRLTGVGAGASPNNLLDQRDQLVSELNQIVGVEVSVQDGGTYNITMANGYSLVQGSTARQLAAVPSSADPSRTTVAYVDGTAGNIEIPEKLLNTGSLGGILTFRSQDLDQTRNTLGQLALAFAEAFNTQHKAGFDANGDAGEDFFAIGKPAVLQNTKNKGDVAIGATVTDASAVLATDYKISFDNNQWQVTRLASNTTFTVTPDANGKVAFDGLELTFTGTPAVNDSFTLKPVSDAIVNMDVLITDEAKIAMASEEDAGDSDNRNGQALLDLQSNSKTVGGAKSFNDAYASLVSDIGNKTATLKTSSATQGNVVTQLSNQQQSISGVNLDEEYGNLQRFQQYYLANAQVLQTANAIFDALINIR	3.99 ± 0.38	> 8	> 8		> 8	0.385 ± 0.15	0.323 ± 0.065	0.835 ± 0.28	5.22 ± 0.16			
MSSSCIEEVSVPDDNWYRIANELLSRAGIAINGSAPADIRVKNPDFFKRVLQEGSLGLGESYMDGWWECDRLDMFFSKVLRAGLENQLPHHFKDTLRIAGARLFNLQSKKRAWIVGKEHYDLGNDLFSRMLDPFMQYSCAYWKDADNLESAQQAKLKMICEKLQLKPGMRVLDIGCGWGGLAHYMASNYDVSVVGVTISAEQQKMAQERCEGLDVTILLQDYRDLNDQFDRIVSVGMFEHVGPKNYDTYFAVVDRNLKPEGIFLLHTIGSKKTDLNVDPWINKYIFPNGCLPSVRQIAQSSEPHFVMEDWHNFGADYDTTLMAWYERFLAAWPEIADNYSERFKRMFTYYLNACAGAFRARDIQLWQVVFSRGVENGLRVAR [P0A9H7]	2.09 ± 0.32	0.86 ± 0.041	0.465 ± 0.078	0.662 ± 0.29	0.503 ± 0.04	0.474 ± 0.077	0.6003 ± 0.0022	0.871 ± 0.26	0.643 ± 0.12	0.868 ± 0.22	0.649 ± 0.26	1.27 ± 0.76
MSSSRPVFRSRWLPYLLVAPQLIITVIFFIWPAGEALWYSLQSVDPFGFSSQFVGLDNFVTLFHDSYYLDSFWTTIKFSTFVTVSGLLVSLFFAALVEYIVRGSRFYQTLMLLPYAVAPAVAAVLWIFLFNPGRGLITHFLAEFGYDWNHAQNSGQAMFLVVFASVWKQISYNFLFFYAALQSIPRSLIEAAAIDGAGPIRRFFKIALPLIAPVSFFLLVVNLVYAFFDTFPVIDAATSGGPVQATTTLIYKIYREGFTGLDLASSAAQSVVLMFLVIVLTVVQFRYVESKVRYQ											5.34	11.9 ± 0.84
MSSTLREASKDTLQAKDKTYHYYSLPLAAKSLGDITRLPKSLKVLLENLLRWQDGNSVTEEDIHALAGWLKNAHADREIAYRPARVLMQDFTGVPAVVDLAAMREAVKRLGGDTAKVNPLSPVDLVIDHSVTVDRFGDDEAFEENVRLEMERNHERYVFLKWGKQAFSRFSVVPPGTGICHQVNLEYLGKAVWSELQDGEWIAYPDTLVGTDSHTTMINGLGVLGWGVGGIEAEAAMLGQPVSMLIPDVVGFKLTGKLREGITATDLVLTVTQMLRKHGVVGKFVEFYGDGLDSLPLADRATIANMSPEYGATCGFFPIDAVTLDYMRLSGRSEDQVELVEKYAKAQGMWRNPGDEPIFTSTLELDMNDVEASLAGPKRPQDRVALPDVPKAFAASNELEVNATHKDRQPVDYVMNGHQYQLPDGAVVIAAITSCTNTSNPSVLMAAGLLAKKAVTLGLKRQPWVKASLAPGSKVVSDYLAKAKLTPYLDELGFNLVGYGCTTCIGNSGPLPDPIETAIKKSDLTVGAVLSGNRNFEGRIHPLVKTNWLASPPLVVAYALAGNMNINLASEPIGHDRKGDPVYLKDIWPSAQEIARAVEQVSTEMFRKEYAEVFEGTAEWKGINVTRSDTYGWQEDSTYIRLSPFFDEMQATPAPVEDIHGARILAMLGDSVTTDHISPAGSIKPDSPAGRYLQGRGVERKDFNSYGSRRGNHEVMMRGTFANIRIRNEMVPGVEGGMTRHLPDSDVVSIYDAAMRYKQEQTPLAVIAGKEYGSGSSRDWAAKGPRLLGIRVVIAESFERIHRSNLIGMGILPLEFPQGVTRKTLGLTGEEKIDIGDLQNLQPGATVPVTLTRADGSQEVVPCRCRIDTATELTYYQNDGILHYVIRNMLK	5.26 ± 0.24	4.44 ± 0.1	4.73 ± 0.14	4.71 ± 0.15	4.362 ± 0.015	3.14 ± 0.26	5.47 ± 0.13	9.9 ± 0.64	4.65 ± 0.17	7.39 ± 0.19	5.81 ± 0.33	11 ± 0.17
MSSTNIEQVMPVKLAQALANPLFPALDSALRSGRHIGLDELDNHAFLMDFQEYLEEFYARYNVELIRAPEGFFYLRPRSTTLIPRSVLSELDMMVGKILCYLYLSPERLANEGIFTQQELYDELLTLADEAKLLKLVNNRSTGSDVDRQKLQEKVRSSLNRLRRLGMVWFMGHDSSKFRITESVFRFGADVRAGDDPREAQRRLIRDGEAMPIENHLQLNDETEENQPDSGEEE	6.36 ± 0.27	6.18 ± 0.4		6.21 ± 0.7	5.67 ± 0.27	2.98 ± 0.069	5.85 ± 0.17	11.1 ± 0.5	5.85 ± 0.31	9.43 ± 0.28	5.716 ± 0.029	10.7 ± 0.54
MSSVDILVPDLPESVADATVATWHKKPGDAVVRDEVLVEIETDKVVLEVPASADGILDAVLEDEGTTVTSRQILGRLREGNSAGKETSAKSEEKASTPAQRQQASLEEQNNDALSPAIRRLLAEHNLDASAIKGTGVGGRLTREDVEKHLAKAPAKESAPAAAAPAAQPALAARSEKRVPMTRLRKRVAERLLEAKNSTAMLTTFNEVNMKPIMDLRKQYGEAFEKRHGIRLGFMSFYVKAVVEALKRYPEVNASIDGDDVVYHNYFDVSMAVSTPRGLVTPVLRDVDTLGMADIEKKIKELAVKGRDGKLTVEDLTGGNFTITNGGVFGSLMSTPIINPPQSAILGMHAIKDRPMAVNGQVEILPMMYLALSYDHRLIDGRESVGFLVTIKELLEDPTRLLLDV [P0AFG6]		6.24 ± 0.17	5.462 ± 0.018	5.45 ± 0.14	4.93 ± 0.068	2.97 ± 0.23	5.7 ± 0.27	11.3 ± 0.7	5.17 ± 0.35	11 ± 2.5	5.72 ± 0.087	12 ± 1.1
MSTANQKPTESVSLNAFKQPKAFYLIFSIELWERFGYYGLQGIMAVYLVKQLGMSEADSITLFSSFSALVYGLVAIGGWLGDKVLGTKRVIMLGAIVLAIGYALVAWSGHDAGIVYMGMAAIAVGNGLFKANPSSLLSTCYEKNDPRLDGAFTMYYMSVNIGSFFSMIATPWLAAKYGWSVAFALSVVGLLITIVNFAFCQRWVKQYGSKPDFEPINYRNLLLTIIGVVALIAIATWLLHNQEVARMALGVVAFGIVVIFGKEAFAMKGAARRKMIVAFILMLEAIIFFVLYSQMPTSLNFFAIRNVEHSILGLAVEPEQYQALNPFWIIIGSPILAAIYNKMGDTLPMPTKFAIGMVMCSGAFLILPLGAKFASDAGIVSVSWLVASYGLQSIGELMISGLGLAMVAQLVPQRLMGFIMGSWFLTTAGANLIGGYVAGMMAVPDNVTDPLMSLEVYGRVFLQIGVATAVIAVLMLLTAPKLHRMTQDDAADKAAKAAVA										4.49		
MSTDNKQSLPAITLAAIGVVYGDIGTSPLYTLRECLSGQFGFGVERDAVFGFLSLIFWLLIFVVSIKYLTFVMRADNAGEGGILTLMSLAGRNTSARTTSMLVIMGLIGGSFFYGEVVITPAISVMSAIEGLEIVAPQLDTWIVPLSIIVLTLLFMIQKHGTAMVGKLFAPIMLTWFLILAGLGLRSIIANPEVLHALNPMWAVHFFLEYKTVSFIALGAVVLSITGVEALYADMGHFGKFPIRLAWFTVVLPSLTLNYFGQGALLLKNPEAIKNPFFLLAPDWALIPLLIIAALATVIASQAVISGVFSLTRQAVRLGYLSPMRIIHTSEMESGQIYIPFVNWMLYVAVVIVIVSFEHSSNLAAAYGIAVTGTMVLTSILSTTVARQNWHWNKYFVALILIAFLCVDIPLFTANLDKLLSGGWLPLSLGTVMFIVMTTWKSERFRLLRRMHEHGNSLEAMIASLEKSPPVRVPGTAVYMSRAINVIPFALMHNLKHNKVLHERVILLTLRTEDAPYVHNVRRVQIEQLSPTFWRVVASYGWRETPNVEEVFHRCGLEGLSCRMMETSFFMSHESLILGKRPWYLRLRGKLYLLLQRNALRAPDQFEIPPNRVIELGTQVEI	7.06 ± 1.1		6.21	6.28 ± 0.53	5.9 ± 0.4		6.79 ± 0.6	14.2 ± 1.2	6.28 ± 1	12.17 ± 0.096	6.43 ± 0.26	12.6 ± 0.69
MSTIIMDLCSYTRLGLTGYLLSRGVKKREINDIETVDDLAIACDSQRPSVVFINEDCFIHDASNSQRIKLIINQHPNTLFIVFMAIANVHFDEYLLVRKNLLISSKSIKPESLDDILGDILKKETTITSFLNMPTLSLSRTESSMLRMWMAGQGTIQISDQMNIKAKTVSSHKGNIKRKIKTHNKQVIYHVVRLTDNVTNGIFVNMR [P0DMC9]	5.4 ± 0.66			1 ± 0.029	1.51 ± 0.036							
MSTITLLCIALAGVIMLLLLVIKAKVQPFVALLLVSLLVALAAGIPAGEVGKVMIAGMGGVLGSVTIIIGLGAMLGRMIEHSGGAESLANYFSRKLGDKRTIAALTLAAFFLGIPVFFDVGFIILAPIIYGFAKVAKISPLKFGLPVAGIMLTVHVAVPPHPGPVAAAGLLHADIGWLTIIGIAISIPVGVVGYFAAKIINKRQYAMSVEVLEQMQLAPASEEGATKLSDKINPPGVALVTSLIVIPIAIIMAGTVSATLMPPSHPLLGTLQLIGSPMVALMIALVLAFWLLALRRGWSLQHTSDIMGSALPTAAVVILVTGAGGVFGKVLVESGVGKALANMLQMIDLPLLPAAFIISLALRASQGSATVAILTTGGLLSEAVMGLNPIQCVLVTLAACFGGLGASHINDSGFWIVTKYLGLSVADGLKTWTVLTTILGFTGFLITWCVWAVI								15.2				

Reference: the supplement of paper PMC11246515
